Test results: patent US20160168251A1

Molecular target: human NPRA on HEK293 cells, without added ligand (human) (UniProt P16066)
Test: cell-based or functional assay

Chain of human NPRA on HEK293 cells, without added ligand (human) (P16066 33-1061 limits assumed): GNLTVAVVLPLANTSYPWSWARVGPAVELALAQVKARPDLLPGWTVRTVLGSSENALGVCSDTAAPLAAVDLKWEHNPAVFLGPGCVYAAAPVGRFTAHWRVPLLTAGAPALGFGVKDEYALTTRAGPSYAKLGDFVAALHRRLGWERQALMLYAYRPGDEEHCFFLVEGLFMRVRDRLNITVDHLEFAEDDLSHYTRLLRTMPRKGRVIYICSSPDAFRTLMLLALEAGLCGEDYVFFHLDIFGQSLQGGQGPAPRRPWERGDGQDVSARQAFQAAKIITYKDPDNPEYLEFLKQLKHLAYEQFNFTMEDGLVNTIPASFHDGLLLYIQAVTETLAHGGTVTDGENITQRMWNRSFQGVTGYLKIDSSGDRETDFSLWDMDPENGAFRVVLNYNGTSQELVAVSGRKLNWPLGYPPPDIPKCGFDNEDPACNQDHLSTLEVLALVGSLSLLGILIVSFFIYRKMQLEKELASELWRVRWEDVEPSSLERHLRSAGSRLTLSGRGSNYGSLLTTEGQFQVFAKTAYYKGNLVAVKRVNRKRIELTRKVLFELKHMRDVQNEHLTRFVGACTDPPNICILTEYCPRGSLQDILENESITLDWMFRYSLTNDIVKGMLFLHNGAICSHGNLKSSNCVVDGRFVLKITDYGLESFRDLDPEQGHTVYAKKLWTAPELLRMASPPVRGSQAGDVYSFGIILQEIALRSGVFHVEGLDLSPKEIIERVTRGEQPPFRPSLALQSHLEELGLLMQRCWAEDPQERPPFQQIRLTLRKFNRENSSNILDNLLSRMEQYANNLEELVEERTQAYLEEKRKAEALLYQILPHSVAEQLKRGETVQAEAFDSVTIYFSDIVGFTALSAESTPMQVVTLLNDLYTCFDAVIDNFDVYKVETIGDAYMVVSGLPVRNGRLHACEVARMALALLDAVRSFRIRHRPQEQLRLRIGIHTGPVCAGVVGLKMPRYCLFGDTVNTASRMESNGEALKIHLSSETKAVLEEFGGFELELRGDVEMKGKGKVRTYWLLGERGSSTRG

EC50 of BNP, cGMP production in HEK NPRA cells, in presence of negative control Fab: 90 nM
Substance: B-type natriuretic peptide (BNP), free (from UniProt P16860 27-134) (ligand)
